Laboratory results as given in patent publication US20170096461A1 (IMMATICS BIOTECHNOLOGIES, published 2017).

target: T1, HLA-A*02:01 (peptide-receptive MHC class I monomer after UV-ligand exchange) (human); experiment: UV-ligand exchange + anti-b2m ELISA; exchange yield grade: + >=10%, ++ >=20%, +++ >=50, ++++ >=75%
T1 construct: Monomers made with a UV-sensitive peptide that is cleaved by UV and exchanged for the test peptide; captured on streptavidin plates; also called MHC molecules
Excerpt: Candidate peptides for T cell based therapies according to the present invention were further tested for their MHC binding capacity (affinity). The individual peptide-MHC complexes were produced by UV-ligand exchange, where a UV-sensitive peptide is cleaved upon UV-irradiation, and exchanged with the peptide of interest as analyzed. Only peptide candidates that can effectively bind and stabilize the peptide-receptive MHC molecules prevent dissociation of the MHC complexes. To determine the yield of the exchange reaction, an ELISA was performed based on the detection of the light chain (β2m) of stabilized MHC complexes. The assay was performed as generally described in Rodenko et al. (Rodenko et al., 2006).
96 well MAXISorp plates (NUNC) were coated over night with 2 ug/ml streptavidin in PBS at room temperature, washed 4× and blocked for 1 h at 37° C. in 2% BSA containing blocking buffer. Refolded HLA-A*02:01/MLA-001 monomers served as standards, covering the range of 15-500 ng/ml. Peptide-MHC monomers of the UV-exchange reaction were diluted 100 fold in blocking buffer. Samples were incubated for 1 h at 37° C., washed four times, incubated with 2 ug/ml HRP conjugated anti-β2m for 1 h at 37° C., washed again and detected with TMB solution that is stopped with […]. Absorption was measured at 450 nm. Candidate peptides that show a high exchange yield (preferably higher than 50%, most preferred higher than 75%) are generally preferred for a generation and production of antibodies or fragments thereof, and/or T cell receptors or fragments thereof, as they show sufficient avidity to the MHC molecules and prevent dissociation of the MHC complexes.

Row | Binder | peptide exchange yield
1 | GLLEVQVEV [peptide GLLEVQVEV (SEQ ID NO: 40)] | 50 to 75%
2 | FLPEAPAEL [peptide FLPEAPAEL (SEQ ID NO: 111)] | 50 to 75%
3 | GLISSLNEI [peptide GLISSLNEI (SEQ ID NO: 38)] | ≥ 75%
4 | GLLDPGMLVNI [peptide GLLDPGMLVNI (SEQ ID NO: 4)] | 50 to 75%
5 | FLLDSAPLNV [peptide FLLDSAPLNV (SEQ ID NO: 117)] | ≥ 75%
6 | ILVSQLEQL [peptide ILVSQLEQL (SEQ ID NO: 28)] | ≥ 75%
7 | GLSETILAV [peptide GLSETILAV (SEQ ID NO: 25)] | ≥ 75%
8 | ALLPSDCLQEA [peptide ALLPSDCLQEA (SEQ ID NO: 115)] | 50 to 75%
9 | FMGDVFINV [peptide FMGDVFINV (SEQ ID NO: 35)] | ≥ 75%
10 | GLDPTQFRV [peptide GLDPTQFRV (SEQ ID NO: 39)] | 50 to 75%
11 | FLTAFLVQI [peptide FLTAFLVQI (SEQ ID NO: 13)] | 50 to 75%
12 | ALGEISVSV [peptide ALGEISVSV (SEQ ID NO: 18)] | 50 to 75%
13 | ALLEPGGVLTI [peptide ALLEPGGVLTI (SEQ ID NO: 114)] | 50 to 75%
14 | ALLVRLQEV [peptide ALLVRLQEV (SEQ ID NO: 116)] | ≥ 75%
15 | AMYGTKLETI [peptide AMYGTKLETI (SEQ ID NO: 107)] | ≥ 75%
16 | GLTETGLYRI [peptide GLTETGLYRI (SEQ ID NO: 110)] | 50 to 75%
17 | ILLDDQFQPKL [peptide ILLDDQFQPKL (SEQ ID NO: 108)] | ≥ 75%
18 | FLMEEVHMI [peptide FLMEEVHMI (SEQ ID NO: 24)] | 50 to 75%
19 | AMLEEVNYI [peptide AMLEEVNYI (SEQ ID NO: 1)] | 50 to 75%
20 | ILIETKLVL [peptide ILIETKLVL (SEQ ID NO: 14)] | 50 to 75%
21 | ALTSLELEL [peptide ALTSLELEL (SEQ ID NO: 32)] | 50 to 75%
22 | AAASLIRLV [peptide AAASLIRLV (SEQ ID NO: 126)] | 10 to 20%
23 | GLLEDERALQL [peptide GLLEDERALQL (SEQ ID NO: 42)] | 50 to 75%

Results, then the binder that gave them:

Row | peptide exchange yield | Binder
24 | 50 to 75% | SLFYNELHYV [peptide SLFYNELHYV (SEQ ID NO: 37)]
25 | 50 to 75% | SMMPDELLTSL [peptide SMMPDELLTSL (SEQ ID NO: 122)]
26 | 50 to 75% | SLITDLQTI [peptide SLITDLQTI (SEQ ID NO: 124)]
27 | 50 to 75% | LLSEPSLLRTV [peptide LLSEPSLLRTV (SEQ ID NO: 125)]
28 | ≥ 75% | SLDIITITV [peptide SLDIITITV (SEQ ID NO: 27)]
29 | 50 to 75% | SLAADIPRL [peptide SLAADIPRL (SEQ ID NO: 120)]
30 | 50 to 75% | MLDEILLQL [peptide MLDEILLQL (SEQ ID NO: 20)]
31 | 50 to 75% | VILDLPLVI [peptide VILDLPLVI (SEQ ID NO: 16)]
32 | 50 to 75% | YMLEHVITL [peptide YMLEHVITL (SEQ ID NO: 121)]
33 | 50 to 75% | KLDKNPNQV [peptide KLDKNPNQV (SEQ ID NO: 123)]
34 | ≥ 75% | RLLQDPVGV [peptide RLLQDPVGV (SEQ ID NO: 31)]
35 | 50 to 75% | YQIDTVINL [peptide YQIDTVINL (SEQ ID NO: 23)]
36 | 50 to 75% | KMLGLTVSL [peptide KMLGLTVSL (SEQ ID NO: 30)]
37 | 50 to 75% | LVFEGIMEV [peptide LVFEGIMEV (SEQ ID NO: 34)]
38 | 50 to 75% | LLPEKSWEI [peptide LLPEKSWEI (SEQ ID NO: 22)]
39 | 50 to 75% | VLLTTAVEV [peptide VLLTTAVEV (SEQ ID NO: 19)]

Row | peptide exchange yield | Binder
40 | 50 to 75% | LLLPGVIKTV [peptide LLLPGVIKTV (SEQ ID NO: 112)]
41 | ≥ 75% | KMLDEAVFQV [peptide KMLDEAVFQV (SEQ ID NO: 26)]
42 | ≥ 75% | KMPDDVWLV [peptide KMPDDVWLV (SEQ ID NO: 106)]
43 | 50 to 75% | VMFNFPDQATV [peptide VMFNFPDQATV (SEQ ID NO: 2)]
44 | 50 to 75% | MLFEGLDLVSA [peptide MLFEGLDLVSA (SEQ ID NO: 12)]
45 | 50 to 75% | KLPSFLANV [peptide KLPSFLANV (SEQ ID NO: 118)]
46 | ≥ 75% | SLFERLVVL [peptide SLFERLVVL (SEQ ID NO: 109)]
47 | 50 to 75% | VLAEIDPKQLV [peptide VLAEIDPKQLV (SEQ ID NO: 3)]
48 | 50 to 75% | YLWSEVFSM [peptide YLWSEVFSM (SEQ ID NO: 43)]
49 | 50 to 75% | SLLTAISEV [peptide SLLTAISEV (SEQ ID NO: 15)]
50 | 50 to 75% | RMDGAVTSV [peptide RMDGAVTSV (SEQ ID NO: 36)]
51 | 50 to 75% | SLMLVTVEL [peptide SLMLVTVEL (SEQ ID NO: 17)]
52 | 50 to 75% | TMEEMIFEV [peptide TMEEMIFEV (SEQ ID NO: 21)]
53 | ≥ 75% | SMYDKVLML [peptide SMYDKVLML (SEQ ID NO: 105)]
54 | 50 to 75% | KAYQELLATV [peptide KAYQELLATV (SEQ ID NO: 41)]
